Numbering of substitutions follows the chain as printed. In names and notes the source's numbering stands.
Target: T1, PACT C213F, mammalian two-hybrid fusion (human, UniProt O75569 1-313, C213F)
T1 sequence (looked up): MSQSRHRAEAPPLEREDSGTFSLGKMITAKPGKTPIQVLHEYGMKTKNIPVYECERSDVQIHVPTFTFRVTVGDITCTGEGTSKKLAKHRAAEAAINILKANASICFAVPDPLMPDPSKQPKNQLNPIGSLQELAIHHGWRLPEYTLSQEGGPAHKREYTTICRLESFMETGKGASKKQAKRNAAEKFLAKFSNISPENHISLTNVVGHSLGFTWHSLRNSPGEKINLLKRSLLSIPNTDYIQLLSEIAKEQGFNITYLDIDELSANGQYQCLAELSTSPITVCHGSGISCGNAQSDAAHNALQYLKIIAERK
Test: two-hybrid

B1: PACT C77S, mammalian two-hybrid fusion (natural protein, human, UniProt O75569 1-313, looked up)
chain: T1 sequence (looked up) with C77S, F213C
  fold over wt PACT-wt PACT interaction (luciferase reporter): ~9 fold

Reference: PMC12949589 (Neurobiology of disease, 2020)
